Measured values reported in publication doi:10.1101/2025.01.05.631353 (bioRxiv, 2025).
Square brackets hold non-standard residues; d marks the D form. Ends that are not written are not given here. pT = C[C@@H](OP(=O)(O)O)[C@H](N)C(=O)O; pS = N[C@@H](COP(=O)(O)O)C(=O)O

How the values were obtained:
β-arrestin2 R166A = β-arrestin2 R166A (UniProt P29067 1-410, R166A); test: ITC
β-arrestin2 R394A = β-arrestin2 R394A (UniProt P29067 1-410, R394A); test: ITC
Sequence of β-arrestin2 R394A (P29067 whole entry R394A): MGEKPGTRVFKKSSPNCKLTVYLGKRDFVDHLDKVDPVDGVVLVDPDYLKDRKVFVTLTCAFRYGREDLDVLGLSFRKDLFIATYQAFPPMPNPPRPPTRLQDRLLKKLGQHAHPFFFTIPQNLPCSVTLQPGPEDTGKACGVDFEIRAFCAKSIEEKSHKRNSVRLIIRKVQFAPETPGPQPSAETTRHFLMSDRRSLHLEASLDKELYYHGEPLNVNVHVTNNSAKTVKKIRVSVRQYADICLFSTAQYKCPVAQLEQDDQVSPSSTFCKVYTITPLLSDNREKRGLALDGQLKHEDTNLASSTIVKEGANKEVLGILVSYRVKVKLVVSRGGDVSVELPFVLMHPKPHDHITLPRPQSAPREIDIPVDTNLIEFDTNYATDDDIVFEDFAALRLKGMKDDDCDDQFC

Sequence of β-arrestin2 R166A (P29067 whole entry R166A): as the sequence (P29067 whole entry R394A) above, with R166A, A394R counted along it

ASRV[pS]E[pT]EY[pS]ALEQ [C7pp2, phosphopeptide derived from the carboxyl terminus of CXCR7 (residues 346-359)] showed a Kd (β-arrestin2 R166A) of 16.4 µM and a Kd (β-arrestin2 R394A) of 1.1 µM.
